From paper doi:10.1101/553636

Molecular target: BD-Barstar D35A
Assay: two-hybrid

Substance: AD-Barnase H102A (enzyme)
- Kd: 11 to 122 nM
